Paper PMC4325984 (The Biochemical journal, 2015)

Target: rabbit muscle ADP-G-actin (rabbit, UniProt P68135 1-377)
Test: ITC

B1: UNC-60B (natural protein)
chain: MASGVKVDPSCKNAYDLLHNKHQHSYIIFKIDKNDTAIVVEKVGEKNAPYAEFVEEMKKLVEDGKECRYAAVDVEVTVQRQGAEGTSTLNKVIFVQYCPDNAPVRRRMLYASSVRALKASLGLESLFQVQASEMSDLDEKSVKSDLMSNQRI
- Kd: 8.62 nM
- dH: -6.72 ± 0.117 kcal/mol

B2: UNC-60A (natural protein)
chain: MSSGVMVDPDVQTSFQKLSEGRKEYRYIIFKIDENKVIVEAAVTQDQLGITGDDYDDSSKAAFDKFVEDVKSRTDNLTDCRYAVFDFKFTCSRVGAGTSKMDKIIFLQICPDGASIKKKMVYASSAAAIKTSLGTGKILQFQVSDESEMSHKELLNKLGEKYGDH
- Kd: 32.2 nM
- dH: -2.31 ± 0.0711 kcal/mol
- stoichiometry N: 1
